Results on 1 molecule are retold here after patent publication US20190330333A1 (KAO, published 2019).

Where no end group is shown, it is not given here.

The target in assay [1] is T1, PEGylated N-terminus 15 amino acids of active GIP (GIP(1-15)), antigen (1) for measurement (also: PEGylated, position not given here).
T1 construct: Immobilized on the ELISA plate; The assay antigen carries no KLH; only the immunogen was KLH-linked; also called PEGylated GIP(1-15)
T1 peptide: YAEGTFISDYSIAMD
The assay can be described thus: ELISA, immobilized peptide antigen, hybridoma culture supernatant. The procedure:
(§1) The reaction between the hybridoma culture supernatant and the antigen (1) and (2) for measurement was evaluated by ELISA using immobilized antigen (1) and (2), and hybridomas that are positive for the antigen (1) and negative for the antigen (2) were selected as anti-active GIP monoclonal antibody-producing hybridomas.
(§2) Antibody-producing hybridoma was cloned by culturing the hybridomas obtained above through a limiting dilution method to obtain single colonies, and single colony-forming wells were subjected to ELISA again to establish 9B9H5-B9 line, which produces an antibody that is positive for the antigen (1) and negative for the antigen (2) (WO 2016/104439).
A general note: ELISA stands for enzyme-linked immunosorbent assay.

In assay [2] the target is T2, PEGylated N-terminus 13 amino acids of inactive GIP (GIP(3-15)), antigen (2) for measurement (also: PEGylated, position not given here).
T2 construct: Immobilized on the ELISA plate; also called PEGylated GIP(3-15)
T2 peptide: EGTFISDYSIAMD
Described as above. The procedure: as §1, §2

The next assay concerns the target T3, inactive GIP, GIP(3-42).
T3 peptide: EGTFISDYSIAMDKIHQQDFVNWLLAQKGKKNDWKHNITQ
The assay can be described thus: sandwich ELISA, anti-total GIP mAb capture, biotinylated antibody at 1 ug/mL as detection. The procedure: (§3) The reactivity between the monoclonal antibody prepared in Production Example 1 and active GIP was confirmed by ELISA. The amino group of the anti-active GIP monoclonal antibody was biotinylated with NH2 group biotinylation kit (manufactured by Dojindo Laboratories). ELISA was performed using the produced biotinylated anti-active GIP monoclonal antibody at 1 μg/mL instead of a detection antibody, GIP detection antibody (biotinylated anti-total GIP monoclonal antibody), included in Human (total) GIP ELISA kit (manufactured by EMD Millipore Corporation). A […] dilution series of GIP(1-42) or GIP(3-42) was prepared in 6 steps (8.2 to 2000 pg/mL) with a 2000 pg/mL solution as the highest concentration. By using an anti-total GIP monoclonal antibody (included in Human GIP (total) ELISA kit manufactured by EMD Millipore Corporation) as a capture antibody, the biotinylated anti-active GIP monoclonal antibody as a detection antibody, and a peroxidase-streptavidin conjugate for detection, sandwich ELISA was conducted to prepare a calibration curve with GIP concentration on the X-axis and 450 nm-590 nm absorbance on the Y-axis (FIG. 1).

The target in another assay is T4, active GIP, GIP(1-42).
T4 construct: The assay was built on a Human (total) GIP ELISA kit
T4 peptide: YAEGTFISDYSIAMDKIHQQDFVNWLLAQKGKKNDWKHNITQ
The assay can be described thus: sandwich ELISA, anti-total GIP mAb capture, biotinylated antibody at 1 ug/mL as detection, GIP 8.2 to 2000 pg/mL. Here is the method:
as §3

B1: anti-active GIP monoclonal antibody produced by hybridoma 9B9H5-B9 line (Production Example 1) (antibody, V domains shown)
VH: QVQLQQPGAELVKPGASVKLSCKASGYTFTSFWMHWVIQRPGQGLEWIGEMNPSDGRTHFNEKFKTKATLTIDTSSNTAYMELNSLTSEDSAVYYCARRMEDWGQGTLVTVSA
VL: DIKMTQSPSSMYASLGERVTITCKASQDINSYLGWFQQKPGKSPKTLIYGANRLVDGVPSRFSGSGSGQDYSLTISSLEYDDMGIYYCLQYDEFPLTFGAGTKLELKR
notes: Mouse (BALB/c) hybridoma monoclonal antibody; Culture supernatant was used in the screening and cloning ELISA; also called anti-active GIP antibody
Regarding B1, the binding result is recorded as “binds” in assay [1]; “no binding” in assay [2]; “no binding” in the assay with inactive GIP, GIP(3-42); “binds” with active GIP, GIP(1-42).
